{
  "source": "patent US6001988",
  "about": "“High affinity nucleic acid ligands to lectins” (NeXstar Pharmaceuticals, Inc.)",
  "binders": {"B1": {"name": "233 (ssDNA)", "DNA": "CTACCTACGATCTGACTAGCCACGACAGAGAACAAGGCGTTAGACGTTATCCGACCACGGCTTACTCTCATGTAGTTCC"}, "B2": {"name": "6.19 (ssRNA)", "RNA": "GGGAAAAGCGAAUCAUACACAAGAAUCGAACCUAGGGAUGCAACGGUGAAGGUUGUGAGGAUUCGCCAUUAGGCGCUCCGCCAGAGACCAACCGAGAA", "modifications": "2'-NH2 all C and U"}, "B3": {"name": "11.29 (ssRNA)", "RNA": "GGGAAAAGCGAAUCAUACACAAGAACUGAGUAAGGUCUGGCGUGGCAUUAGGUUAGUGGGAGGCUUGGAGUAGGCUCCGCCAGAGACCAACCGAGAA", "modifications": "2'-NH2 all C and U"}, "B4": {"name": "6.5 (ssRNA)", "RNA": "GGGAAAAGCGAAUCAUACACAAGAGUCCCUAGGGAUGCAACGGGCAGCAUUCGCAUAGGAGUAAUCGGAGGUCGCUCCGCCAGAGACCAACCGAGAA", "modifications": "2'-NH2 all C and U"}, "B5": {"name": "6.27 (ssRNA)", "RNA": "GGGAAAAGCGAAUCAUACACAAGAUGCCGGUGGAAAGGCGGGUAGGUGACCCGAGGAUUCCUACCAAGCCAUGCUCCGCCAGAGACCAACCGAGAA", "modifications": "2'-NH2 all C and U"}, "B6": {"name": "6.3 (ssRNA)", "RNA": "GGGAAAAGCGAAUCAUACACAAGAGAUACAGCGCGGGUCUAAAGACCUUGCCCCUAGGAUGCAACGGGGUGGCUCCGCCAGAGACCAACCGAGAA", "modifications": "2'-NH2 all C and U"}, "B7": {"name": "11.2 (ssRNA)", "RNA": "GGGAAAAGCGAAUCAUACACAAGACCAACGUACAUCGCGAGCUGGUGGAGAGUUCAUGAGGGUGUUACGGGGUGCUCCGCCAGAGACCAACCGAGAA", "modifications": "2'-NH2 all C and U"}, "B8": {"name": "6.23 (ssRNA)", "RNA": "GGGAAAAGCGAAUCAUACACAAGACUCGGCGGGAAUCGAAAGUGUACUGAAUUAGAACGGUGGGCCUGCUCAUCGUGCUCCGCCAGAGACCAACCGAGAA", "modifications": "2'-NH2 all C and U"}, "B9": {"name": "11.6 (ssRNA)", "RNA": "GGGAAAAGCGAAUCAUACACAAGACUGGGGAGCAGGAUAUGAGAUGUGCGGGGCAAUGGAGUCGUGACGAACCGCUCCGCCAGAGACCAACCGAGAA", "modifications": "2'-NH2 all C and U"}, "B10": {"name": "6.9 (ssRNA)", "RNA": "GGGAAAAGCGAAUCAUACACAAGACUCGGCGGGAACGAAGUGUGUGAGUAACGAUCACUUGGUACUAAAAGCCCGCUCCGCCAGAGACCAACCGAGAA", "modifications": "2'-NH2 all C and U"}, "B11": {"name": "11.34 (ssRNA)", "RNA": "GGGAAAAGCGAAUCAUACACAAGACUCGGCGGGAACGUGAAGUGGGUAGGUAGCUGAAGACGGUCUGGGCGCCAGCUCCGCCAGAGACCAACCGAGAA", "modifications": "2'-NH2 all C and U"}, "B12": {"name": "11.26 (ssRNA)", "RNA": "GGGAAAAGCGAAUCAUACACAAGAUUGGGCAGGCAGAGCGAGACCGGGGGCUCGGCGGGAACGGAACAGGAAUGCUCCGCCAGAGACCAACCGAGAA", "modifications": "2'-NH2 all C and U"}, "B13": {"name": "11.5 (ssRNA)", "RNA": "GGGAAAAGCGAAUCAUACACAAGAACAAGGAUCGAUGGCGAGCCGGGGAGGGCUCGGCGGGAACGAAAUCUGCUCCGCCAGAGACCAACCGAGAA", "modifications": "2'-NH2 all C and U"}, "B14": {"name": "11.8 (ssRNA)", "RNA": "GGGAAAAGCGAAUCAUACACAAGAAUGGUUGGCCUGGGCGCAGGCUUCGAAGACUCGGCGGGAACGGGAAUGGCUCCGCCAGAGACCAACCGAGAA", "modifications": "2'-NH2 all C and U"}, "B15": {"name": "11.12 (ssRNA)", "RNA": "GGGAAAAGCGAAUCAUACACAAGACGGCUGUGUGUGGUAGCGUCAUAGUAGGAGUCGUCACGAACCAAGGCGCUCCGCCAGAGACCAACCGAGAA", "modifications": "2'-NH2 all C and U"}, "B16": {"name": "11.19 (ssRNA)", "RNA": "GGGAAAAGCGAAUCAUACACAAGAAAGGGAUGGGAUUGGGACGAGCGGCCAAGACUCGGCGGGAACGAAGGGUGCUCCGCCAGAGACCAACCGAGAA", "modifications": "2'-NH2 all C and U"}, "B17": {"name": "11.15 (ssRNA)", "RNA": "GGGAAAAGCGAAUCAUACACAAGACUCGGCGGGAACGAAAGUGUCAUGGUAGCAAGUCCAAUGGUGGACUCUGCUCCGCCAGAGACCAACCGAGAA", "modifications": "2'-NH2 all C and U"}, "B18": {"name": "11.32 (ssRNA)", "RNA": "GGGAAAAGCGAAUCAUACACAAGACGUGCGGAGCAAAUAGGGGAUCAUGGAGUCGUACGAACCGUUAUCGCGCUCCGCCAGAGACCAACCGAGAA", "modifications": "2'-NH2 all C and U"}, "B19": {"name": "11.4 (ssRNA)", "RNA": "GGGAAAAGCGAAUCAUACACAAGACAGGCACUGAAAACUCGGCGGGAACGAAAGUAGUGCCGACUCAGACGCGUGCUCCGCCAGAGACCAACCGAGAA", "modifications": "2'-NH2 all C and U"}, "B20": {"name": "11.27 (ssRNA)", "RNA": "GGGAAAAGCGAAUCAUACACAAGACGAUGCGAGGCAAGAAAUGGAGUCGUUACGAACCCUCUUGCAGUGCGCGGCUCCGCCAGAGACCAACCGAGAA", "modifications": "2'-NH2 all C and U"}, "B21": {"name": "11.28 (ssRNA)", "RNA": "GGGAAAAGCGAAUCAUACACAAGAGUUGGUGCGAGCUGGGGCGGCGAGAAGGUAGGCGGUCCGAGUGUUCGAAUGCUCCGCCAGAGACCAACCGAGAA", "modifications": "2'-NH2 all C and U"}},
  "data": [
    {"biological_target": "T1, E-selectin (ES-Rg) (Homo sapiens, UniProt P16581 P16581:22-556)", "T1 chain": "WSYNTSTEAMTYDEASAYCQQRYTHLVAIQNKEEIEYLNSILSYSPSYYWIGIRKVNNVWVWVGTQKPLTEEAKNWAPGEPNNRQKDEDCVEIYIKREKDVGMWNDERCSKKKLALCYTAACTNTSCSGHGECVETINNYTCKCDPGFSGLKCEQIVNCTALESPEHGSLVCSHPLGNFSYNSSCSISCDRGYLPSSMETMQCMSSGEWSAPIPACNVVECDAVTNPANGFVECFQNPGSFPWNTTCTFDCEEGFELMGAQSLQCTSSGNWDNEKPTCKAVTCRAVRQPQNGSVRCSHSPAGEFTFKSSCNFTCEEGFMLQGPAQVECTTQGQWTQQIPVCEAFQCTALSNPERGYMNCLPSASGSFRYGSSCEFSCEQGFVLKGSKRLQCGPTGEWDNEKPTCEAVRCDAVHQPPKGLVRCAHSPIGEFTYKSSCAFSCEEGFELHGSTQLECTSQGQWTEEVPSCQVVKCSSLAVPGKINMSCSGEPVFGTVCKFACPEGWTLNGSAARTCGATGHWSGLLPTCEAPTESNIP", "test": "filter; room temp, Ca/Mg buffer", "conditions": "tags: extracellular domain fused to human IgG1 Fc (provided by A. Varki); chain copies: 2 (dimeric Fc chimera, inferred)", "protocol": "(§1) RNA was reverse transcribed into cDNA by AMV reverse transcriptase at 48° C. for 60 min in 50 mM Tris-Cl pH (8.3), 60 mM NaCl, 6 mM Mg(OAc)_2, 10 mM DTT, 100 pmol DNA primer, 0.4 mM each of dNTPs, and 0.4 unit/µl AMV RT. […] C) Nitrocellulose Filter Partitioning As described in SELEX Patent Applications, the nitrocellulose filter partitioning method was used to determine the affinity of RNA ligands for WGA and for other proteins. Filter discs (nitrocellulose/cellulose acetate mixed matrix, 0.45 µm pore size, Millipore; or pure nitrocellulose, 0.45 µm pore size, Bio-Rad) were placed on a vacuum manifold and washed with 4 ml of HBSS buffer under vacuum. Reaction mixtures, containing ^32P labeled RNA pools and unlabeled WGA, were incubated in HBSS for 10 min at room temperature, filtered, and then immediately washed with 4 ml HBSS. The filters were air-dried and counted in a Beckman LS6500 liquid scintillation counter without fluor. WGA is a homodimer, molecular weight 43.2 kD, with 4 GlcNAc binding sites per dimer. For affinity calculations, we assume one RNA ligand binding site per monomer (two per dimer). The monomer concentration is defined as 2 times the dimer concentration. The equilibrium dissociation constant, K_d, for an RNA pool or specific ligand that binds monophasically is given by the equation $$K_d=[P_f][R_f]/[RP]$$\n(§2) The affinity of representative cloned ligands for LS-Rg, ES-Rg, PS-Rg, CD22β-Rg and WGA was determined by nitrocellulose partitioning and the results shown in Table XIV. The ligands are highly specific for L-selectin.\n(§3) *Kds were determined at room temperature.", "units": {"Kd": "nM"}, "values": [
      {"binder": "B1", "Kd": 39}
    ]},
    {"biological_target": "T2, P-selectin (PS-Rg) (Homo sapiens, UniProt P16109 P16109:42-321)", "T2 chain": "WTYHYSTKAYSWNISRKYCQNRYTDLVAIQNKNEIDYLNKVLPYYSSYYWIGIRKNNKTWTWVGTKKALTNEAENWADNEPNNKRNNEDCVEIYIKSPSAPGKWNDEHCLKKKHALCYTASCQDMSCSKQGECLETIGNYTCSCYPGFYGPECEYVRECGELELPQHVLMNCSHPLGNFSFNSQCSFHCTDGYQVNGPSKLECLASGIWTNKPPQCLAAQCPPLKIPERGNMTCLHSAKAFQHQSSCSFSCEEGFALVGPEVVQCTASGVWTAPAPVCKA", "test": "filter; room temp, Ca/Mg buffer", "conditions": "tags: lectin, EGF and first two CRD domains fused to human IgG1 Fc (provided by A. Varki); chain copies: 2 (dimeric Fc chimera, inferred)", "protocol": "as §1, §2, §3", "units": {"Kd": "nM"}, "values": [
      {"binder": "B1", "Kd": 420}
    ]},
    {"biological_target": "T3, wheat germ agglutinin (WGA) (Triticum vulgare, UniProt P10968 P10968:27-197)", "T3 sequence": "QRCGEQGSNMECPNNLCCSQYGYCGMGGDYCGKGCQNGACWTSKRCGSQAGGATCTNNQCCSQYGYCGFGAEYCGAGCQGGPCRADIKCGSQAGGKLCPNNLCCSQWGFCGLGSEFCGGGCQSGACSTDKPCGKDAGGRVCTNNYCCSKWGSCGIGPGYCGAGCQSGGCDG", "test": "filter; HBSS, room temp", "conditions": "tags: free lectin, E Y Laboratories; label: 32P", "protocol": "as §1, with “The specifically eluted fraction was processed for use in the following round. Fractions eluted from immobilized WGA were heated at 90° C. for 5 minutes in 1% SDS, 2% β-mercaptoethanol and extracted with phenol/chloroform. RNA was” for “RNA was”\n(§4) The dissociation constants for representative members of families 1–9 and orphan ligands were determined by nitrocellulose filter binding experiments and are listed in Table III. These calculations assume one RNA ligand binding site per WGA monomer.", "units": {"Kd": "nM"}, "values": [
      {"binder": "B2", "Kd": 74},
      {"binder": "B3", "Kd": 32},
      {"binder": "B4", "Kd": 678},
      {"binder": "B5", "Kd": 56},
      {"binder": "B6", "Kd": 120},
      {"binder": "B7", "Kd": 62}
    ]},
    {"biological_target": "T3, wheat germ agglutinin (WGA)", "test": "filter; HBSS, room temp", "conditions": "tags: free lectin, E Y Laboratories; label: 32P; hairpin", "protocol": "as §1, with “The specifically eluted fraction was processed for use in the following round. Fractions eluted from immobilized WGA were heated at 90° C. for 5 minutes in 1% SDS, 2% β-mercaptoethanol and extracted with phenol/chloroform. RNA was” for “RNA was”\nas §4", "units": {"Kd": "nM"}, "values": [
      {"binder": "B8", "Kd": 824},
      {"binder": "B9", "Kd": 702},
      {"binder": "B10", "Kd": 396},
      {"binder": "B11", "Kd": 92},
      {"binder": "B12", "Kd": 38},
      {"binder": "B13", "Kd": 44},
      {"binder": "B14", "Kd": 9.2},
      {"binder": "B15", "Kd": 15.2},
      {"binder": "B16", "Kd": 22},
      {"binder": "B17", "Kd": 54},
      {"binder": "B18", "Kd": 274},
      {"binder": "B19", "Kd": 32},
      {"binder": "B20", "Kd": 30}
    ]},
    {"biological_target": "T3, wheat germ agglutinin (WGA)", "test": "filter; HBSS, room temp", "conditions": "tags: free lectin, E Y Laboratories; label: 32P; possible G-quartet (speculative)", "protocol": "as §1, with “The specifically eluted fraction was processed for use in the following round. Fractions eluted from immobilized WGA were heated at 90° C. for 5 minutes in 1% SDS, 2% β-mercaptoethanol and extracted with phenol/chloroform. RNA was” for “RNA was”\nas §4", "units": {"Kd": "nM"}, "values": [
      {"binder": "B21", "Kd": 9.2}
    ]}
  ]
}
